Test results taken from patent US20250084164A1 (NEXTCURE, published 2025).

Assays:
[1] = biological target: T1, monomeric LAIR-1-His (R&D Systems) (UniProt Q6GTX8 22-163); test: BLI (Octet RED96)
T1 chain: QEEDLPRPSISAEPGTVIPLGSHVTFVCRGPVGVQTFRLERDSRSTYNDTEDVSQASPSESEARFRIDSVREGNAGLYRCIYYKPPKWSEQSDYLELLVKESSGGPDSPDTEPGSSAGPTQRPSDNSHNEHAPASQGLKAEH

[2] = biological target: T2, monomeric LAIR-1-His (R&D Systems) (UniProt Q6GTX8 22-163, limits assumed); test: BLI (Octet RED96), chimeric mAb on anti-human IgG sensor, monomeric LAIR-1-His in solution
T2 construct: Bought protein
T2 sequence (looked up): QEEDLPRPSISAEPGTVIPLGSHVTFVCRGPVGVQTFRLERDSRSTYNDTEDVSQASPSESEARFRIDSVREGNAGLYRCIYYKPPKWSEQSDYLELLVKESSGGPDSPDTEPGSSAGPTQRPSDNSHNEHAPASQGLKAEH
Description: Anti-human IgG capture sensors were used to bind to chimeric LAIR-1 mAbs at a density to ensure 1:1 binding to monomeric LAIR-1-His (R&D Systems) in solution at various concentrations. Assay buffer was PBS with 0.05% Tween-20 and regeneration buffer was 10 mM glycine pH 1.5. First, chimeric LAIR-1 mAbs were loaded to sensor. This was followed by association step with LAIR-1-His, and a dissociation step in a separate LAIR-1-His free well. Data was processed using ForteBio data analysis software 9.0. A global fit was used following subtraction of reference wells. The reported average KD values are from at least three independent Octet runs with high confidence of accuracy based on X2 and R2 values. Note the two chimeric versions of 12E10 were tested. Both had relatively low affinity, while the 12E10V2 mAb was removed from usage due to very low affinity.

B1: 12E10V1 (antibody, V domains shown)
VH: QVQLQQSGAELARPGTSVKLSCKASGYTFTSCGLSWVKQRTGQGLEWIGEIYPSNGNSYYSDKVKDKATLTADKSSSTAYMELRSLTSEDSAVYFCARAYYTNGYYAMDYWGQGTSVTVSS
VL: DIVMTQSQKFMSTSVGDRVSITCKASQNVRSAVAWYQQKPGQSPKTLIYLASNRHTGVPDRFTGSGSGTDFTLTISNVQSEDLADYFCLQHWNYPLTFGAGTKLELK
Question: Which Kd [1] does the source give for B1 here?
Answer: 20.2 nM

B2: chimeric 6G6 (antibody, V domains shown)
VH: EVQLQQSGPELVKPGASVKISCKASGYTFTTYYMNWVKQSHGKSLEWIGNINPDNGITSYNQKFKGKATLTVDKSSSTAYMELRSLTSEDSAVYYCARGKSLAYWGQGTLVTVSA
VL: DIVMTQSHKFMSTSVGDRVSITCKASQNVGTAVAWYQQKPGQSPKLLIYWASIRHTGVPDRFTGSGSGTDFTLTISNVQSEDLADYFCQQYSSHPYTFGGGTKLEIK
notes: Chimeric mAb
Question: Which results are given for B2?
Answer: Kd [1]: 4.7 nM; Kd [2]: < 5 nM

B3: chimeric LAIR-1 mAb 4B3 (antibody, V domains shown)
VH: QIQLQQSGAELARPGASVKLPCKASDYIFISYGLNWVRQTTGQGLEWIGEIYPRSGHTYYNEKFKGKATLTADKSSSTAYMELRSLTSEDSAVYFCARRSVFYDYDKNGFDYWGQGTTLTVSS
VL: DIVMKQSPSSLRVSAGEKVTMSCKSSQSLLNSGNQKNYLAWYQQKPGQPPKLLIYGASTRESGVPDRFTGSGSGTDFALTISSVQAEDLAVYYCQNDHSYPFTFGSGTKLEIK
Question: B3 was tested. Which Kd [1] did it give?
Answer: 32.3 nM

B4: chimeric LAIR-1 mAb 6F4 (antibody, V domains shown)
VH: QVQLQQSGAELAKPGASVKLSCKASGYTFTSYWMHWVKQRPGQGLEWIGYINPFSGHTKYNQKFKDKATLTADKSSSTAYMQLSSLTYEDSAVYYCARNFDQWGQGTTLTVSS
VL: DIKMTQSPSSMYASLGERVTITCKASQDINSYLSWVQQKPGKSPKTLIDRANRLVDGVPSRFSGSGSGQDYSLTISSLEYEDMGIYYCLQYDEFPPYTFGGGTKLEIK
Question: With B4 as the binder, how does the Kd [1] read?
Answer: 12.8 nM

B5: chimeric LAIR-1 mAb 5A6 (antibody, V domains shown)
VH: QVQLQQSGAELARPGASVKLSCKASGYTFTSYGISWVKQRTGQGLEWIGEIYPRRGNTYYNEKFKGKATLTADKSSSTAYMELRSLTSEDSAVYFCARQLFAYWGQGTLVTVSA
VL: DIQMTQSPSSLSASLGERVSFSCRASQDIGSSLNWLQQEPDGTIKRLIYATSSLDSGVPKRFSGSRSGSDYSLTISSLESEDFVEYYCLQYDSFPYTFGGGTKLEIK
Question: Which Kd [1] does the source give for B5 here?
Answer: 23.3 nM

B6: chimeric 1E11 (antibody, V domains shown)
VH: QVQLQQSGPELVKPGASVKLSCKASGYTFTSYDINWVKQRPGQGLEWIGWIYPRDGSTKYNEKLKGKATLTVDTSSRTAYMELHSLTSEDSAVYFCARGGYYDYDGYWGQGTLVTVSA
VL: DIVMTQAAFSNPVTLGTSASISCRSSKSLLHSNGITYLYWYLQKPGQSPQVLIYQMSSLASGVPDRFSSSGSGTEFTLRISRVEAEDVGVYYCAQNLELPLTFGAGTKLELK
notes: Chimeric mAb (mouse variable, human constant)
Question: With B6 as the binder, how does the Kd [1] read?
Answer: 1.37 nM

Question: And the Kd [2]?
Answer: < 5 nM

B7: chimeric LAIR-1 mAb 7G3 (antibody, V domains shown)
VH: QVQLQQSGPELVKPGASVKLSCKASGYTFTTYDINWVKQRPGQGLEWIGWIYPRDGTTKYNEKFKGKATLTVDTSSTTAYMELHSLTSEDSAVYFCARGGYYDYDGYWGQGTLVTVSA
VL: DIVMTQAAFSNPVTLGTSASISCRSSKSLLHSNGITYLYWYLQKPGQSPQVLIYQMSNLASGVPDRFSSSGSGTEFTLRISRVEAEDVGVYYCAQNLEFPLTFGAGTKLELK
notes: Chimeric mAb
Question: B7 was tested. Which Kd [1] did it give?
Answer: 1.63 nM

Question: And the Kd [2]?
Answer: < 5 nM

B8: chimeric 11B3 (antibody, V domains shown)
VH: EVQLVESGGGLVQPKGSLKLSCAASDFTFNTYAMHWVRQAPGKGLEWVARIRTKSNNYATYYADSVKDRFTISRDDSQSMLYLQMNNLTTEDTAMYYCVRDRYGGAMDYWGQGTSVTVSS
VL: DIQMAQSSSSFSVSLGDRVTITCKASEDIYIRLAWYQQKPGNAPRLLISTATSLETGVPSRFSGSGSGKDYTLSITSLQTEDVATYYCQQYWSTPYTFGGGTRLEIK
notes: Chimeric mAb
Question: Which results are given for B8?
Answer: Kd [1]: 1.98 nM; Kd [2]: < 5 nM

B9: chimeric LAIR-1 mAb 6B2 (antibody, V domains shown)
VH: EVQLVESGGGLVQPKGSLKLSCAASGFSFNINAMNWVRQAPGKGLEWVARIRSKSNNYETYYADSVKDRFTISRDDSESMVYLQMNNLKTEDTAMYYCVRSLWFVYWGQGTLVTVSA
VL: DIQMTQSPASQSASLGESVTITCLASQTIGTWLAWYQQKPGKSPQLLIYAATSLADGVPSRFSGSGSGTKFSFKISSLQAEDFVSYYCQQLYSTPLTFGAGTKLELK
Question: For B9, which Kd [1] is on record?
Answer: 6.53 nM

B10: 9H6 (antibody, V domains shown)
VH: EVQLVESGGGLVQPKGSLKLSCAASGFSFNTHAMNWVRQAPGKGLEWVARIRTKSNNYATYYADSVKDRFIISRDDSENMVYLQMNNLKTEDTAIYYCVRLRGGFLDYWGQGTTLTVSS
VL: DIQMTQSPASQSASLGESVTITCLASQTIGTWLAWYQQKPGRSPQLLIYAATSLADGVPSRFSGSGSGTKFSFKINSLQAEDFVSYYCQQLYSTPFTFGSGTKLEIK
Question: How did the Kd [1] turn out when B10 was run?
Answer: 11.6 nM

B11: chimeric 5E1 (antibody, V domains shown)
VH: EVQLQQSGPELVKPGASVKISCKASGYSFTGYFMNWVKQSPEKSLEWIGEIHPSTGSIIYNQKFKAKATLTIDKSSSTAYMQLKSLTSEDSAVYYCARFDYSNSFAYWGQGTLVTVSA
VL: DIQMTQTTSSLSASLGDRVTISCRASQDISNYLNWYQQKPDGTVKLLIYYTSRLHSGVPSRFSGSGSGTDYSLTISNLEQEDIATYFCQQGNTLPRTFGGGTKLEIK
notes: Chimeric mAb
Question: Which Kd [1] does the source give for B11 here?
Answer: 3.92 nM

Question: What about the Kd [2] of the same binder?
Answer: < 5 nM
